Molecular target: His6-human talin (human) (UniProt Q9Y490)
Assay: pull-down

B1: His6-vinculin head (Vh), vinculin D1 domain (amino acid residues 1–258) (domain or fragment)
chain: MPVFHTRTIESILEPVAQQISHLVIMHEEGEVDGKAIPDLTAPVSAVQAAVSNLVRVGKETVQTTEDQILKRDMPPAFIKVENACTKLVRAAQMLQADPYSVPARDYLIDGSRGILSGTSDLLLTFDEAEVRKIIRVCKGILEYLTVAEVVETMEDLVTYTKNLGPGMTKMAKMIDERQQELTHQEHRVMLVNSMNTVKELLPVLISAMKIFVTTKNTKSQGIEEALKNRNFTVEKMSAEINEIIRVLQLTSWDEDAW
fold lower IC50 than that of the RIAM peptide: 100 fold
